Laboratory results as given in PMC4947154.

B1: human transcobalamin (holo-TC, cyanocobalamin-bound) (natural protein)
chain: EMCEIPEMDSHLVEKLGQHLLPWMDRLSLEHLNPSIYVGLRLSSLQAGTKEDLYLHSLKLGYQQCLLGSAFSEDDGDCQGKPSMGQLALYLLALRANCEFVRGHKGDRLVSQLKWFLEDEKRAIGHDHKGHPHTSYYQYGLGILALCLHQKRVHDSVVDKLLYAVEPFHQGHHSVDTAAMAGLAFTCLKRSNFNPGRRQRITMAIRTVQEEILKAQTPEGHFGNVYSTPLALQFLMTSPMRGAELGTACLKARVALLASLQDGAFQNALMISQLLPVLNHKTYIDLIFPDCLAPRVMLEPAAETIPQTQEIISVTLQVLSLLPPYRQSISVLAGSTVEDVLKKAHELGGFTYETQASLSGPYLTSVMGKAAGEREFWQLLRDPNTPLLQGIADYRPKDGETIELRLVSW
B2: TCα (α domain of human transcobalamin, residues 1-290) (domain or fragment)
chain: EMCEIPEMDSHLVEKLGQHLLPWMDRLSLEHLNPSIYVGLRLSSLQAGTKEDLYLHSLKLGYQQCLLGSAFSEDDGDCQGKPSMGQLALYLLALRANCEFVRGHKGDRLVSQLKWFLEDEKRAIGHDHKGHPHTSYYQYGLGILALCLHQKRVHDSVVDKLLYAVEPFHQGHHSVDTAAMAGLAFTCLKRSNFNPGRRQRITMAIRTVQEEILKAQTPEGHFGNVYSTPLALQFLMTSPMRGAELGTACLKARVALLASLQDGAFQNALMISQLLPVLNHKTYIDLIFPD

Experiments:
[1] = target: CD320(Gly4Ser)4 (flexible linker mutant: EGF-like domain replaced by (Gly4Ser)4) (human) (UniProt Q9NPF0); test: native MS; native ESI-MS of the purified complex and of its individually purified SEC peaks
CD320(Gly4Ser)4 (flexible linker mutant: EGF-like domain replaced by (Gly4Ser)4) (human), sequence (Q9NPF0 other isoform, or with tags, fused parts or gaps, change not shown): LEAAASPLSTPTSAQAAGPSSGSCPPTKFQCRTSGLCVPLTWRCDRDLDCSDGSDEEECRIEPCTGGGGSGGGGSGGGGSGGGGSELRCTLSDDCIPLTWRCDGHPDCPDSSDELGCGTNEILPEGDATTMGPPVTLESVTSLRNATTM

[2] = target: MBP-tagged, biotinylated CD320 (CD320AVI) (human) (UniProt Q9NPF0); test: ELISA; solid-phase binding assay as a2, TC diluted in buffer with 100 mM Tris-HCl pH 7.5, 0.5 mM CaCl2, 150 mM NaCl; n=5
[3] = target: MBP-tagged, biotinylated CD320 (CD320AVI) (human) (UniProt Q9NPF0); test: ELISA; solid-phase binding assay as a2, TC diluted in buffer with 100 mM sodium acetate pH 4.8, 0.5 mM CaCl2, 150 mM NaCl; n=5
[4] = target: CD320 extracellular, TC-binding part (MBP cleaved), as used for biochemical analysis of the complex (human) (UniProt Q9NPF0); test: cross-linking; purified complex at 10 mg/ml cross-linked with glutaraldehyde, 1 h RT, then high-mass MALDI-TOF mass spectrometry
[5] = target: MBP-tagged, biotinylated CD320 (CD320AVI) (human) (UniProt Q9NPF0); test: ELISA; solid-phase binding assay: biotinylated MBP-tagged receptor on Neutravidin plates, tag-less TC serially diluted in 20 mM Tris pH 7.5, 0.5 mM CaCl2, 150 mM NaCl, 0.05% Tween-20, 1 h RT; TC detected with antibody A-5; single-site fit, n=5
[6] = target: MBP-tagged, biotinylated CD320ΔE88 (Avi Tag) (human) (UniProt Q9NPF0); test: as above
[7] = target: CD320 extracellular, TC-binding part (MBP cleaved), as used for biochemical analysis of the complex (human) (UniProt Q9NPF0); test: co-expression and co-purification; TC construct and His9-MBP-CD320 construct co-expressed and secreted from Sf21 cells, complex captured from the medium on Ni-NTA through the receptor's tag

Binder | stoichiometry N [1] | Kd [2] | Kd [3] | stoichiometry N [4] | Kd [5] | Kd [6] | stoichiometry N [7]
B1 | 1 TC:CD320 | 1 nM | 58 nM | 1 TC:CD320 | 1.5 nM | 1.5 nM | –
B2 | – | – | – | – | – | – | 1 TCα:CD320
